This is an account of results in the supplement of paper PMC10567573.

± gives the standard deviation.

The nature of the data set: protein stability index of a GFP-peptide fusion (GPS, HEK-293T) (PSI 1-6); higher = more stable.
Where [1] appears, read: treatment: DMSO, c terminus: a fixed tail appended.
The mark [2] stands for this setting: treatment: MLN4924 1 uM, 8 h, c terminus: a fixed tail appended.
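Further: 24-mer peptide tiles fused after GFP, lentivirally expressed, FACS-sorted into six equal bins by GFP/DsRed ratio, decoded by Illumina sequencing, PSI is the read-weighted mean bin number.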

As to NVEDASHEEVVEKVKKSGSRVMFL [PDZK1], the protein stability index under setting [1] stood at 4.45 ± 0.2.

With CKICGRTFFPVALKKHGPICQKTA [ZC2HC1A], the protein stability index worked out at 3.58 ± 0.063 under setting [1] and 3.92 ± 0.38 under setting [2].

EALSVPLSLCVSSHLALPAQHHWE [CLPTM1]: the protein stability index is, setting by setting: under setting [1], 2.15 ± 0.27; under setting [2], 2.2 ± 0.29.

Consider KLRGPEPAATEAYGSGDTPGGPCD [TBX6], for which the protein stability index runs as follows: under setting [1], 5.35 ± 0.21; under setting [2], 5.28 ± 0.31.

As to KKKTKVLKQRTVIEMFKSITHSTV [EHMT1], the protein stability index reads like this: under setting [1], 2.44 ± 0.35; under setting [2], 2.19 ± 0.47.

Consider SRLMVVVKMDSSIQPGPFRAVLKY [RHOBTB2], for which the protein stability index by setting is: under setting [1], 2.9 ± 0.56; under setting [2], 2.79 ± 0.53.

For the sequence LQRGEALSALDSKANNLSSLSKKY [SEC22B], the protein stability index by setting is: under setting [1], 4.46 ± 0.11; under setting [2], 4.34 ± 0.23.

Turning to RFCCCVAVIYLGYCFCGWIVLGPY [MCOLN1], the protein stability index runs as follows: under setting [1], 3.41 ± 0.26; under setting [2], 3.28 ± 0.48.

Consider PPNGPNLPMATVDIKNPEITTNRF [WASL], for which the protein stability index runs as follows: under setting [1], 4.48 ± 0.15; under setting [2], 4.16 ± 0.29.

As to DIVLMAQALEKIFLQKVAQMPQEE [BRD3], the protein stability index runs as follows: under setting [1], 2.36 ± 1.6; under setting [2], 3 ± 1.

Take LEEQLQGWGEVMLMADKVLRWERA [ARL6IP1]: the protein stability index is, setting by setting: under setting [1], 2.49 ± 0.31; under setting [2], 2.49 ± 0.27.

For the sequence RLFQVVGKTDDTLALLNLACMMTI [TMEM175], the protein stability index by setting is: under setting [1], 2.92 ± 0.53; under setting [2], 2.65 ± 0.56.

With WKVRAEKEACQREKELPAAVHPFH [ZBED2], the protein stability index amounted to 3.9 ± 0.18 under setting [1] and 3.93 ± 0.15 under setting [2].

Sequence LLFDMTTHPVTNTTEKQRLVKKLQ [GOLPH3L] yielded a protein stability index under setting [1] of 2.61 ± 0.26 and a protein stability index under setting [2] of 2.83 ± 0.41.

In the case of DKLRALKSQRQPRTSPSCAFRSDD [CDC14A], the protein stability index under setting [1] came to 4.14 ± 0.23 and the protein stability index under setting [2] stood at 4.15 ± 0.11.

Consider EERQAAQNECQVLKLLNHPNVIEY [NEK8], for which the protein stability index is, setting by setting: under setting [1], 4.01 ± 0.16; under setting [2], 4.29 ± 0.11.

Regarding GGRPGGRGAPAVQQNIPSTLLQDH [WAS], the protein stability index worked out at 4.81 ± 0.13 under setting [1] and 4.77 ± 0.23 under setting [2].

Turning to STPTTPGSTAITPGTPPSYSSRTP [MAP2], the protein stability index runs as follows: under setting [1], 4.88 ± 0.1; under setting [2], 5.06 ± 0.15.

As to LQALDPQQCVDKESSLGSESEEEE [SLC22A15], the protein stability index turned out to be 5.56 ± 0.28 under setting [1] and 5.59 ± 0.1 under setting [2].

DLYALKSVKIPVRNHGILMETHKE [LYSMD4] displayed a protein stability index under setting [1] of 3.02 ± 0.14 and a protein stability index under setting [2] of 3.25 ± 0.12.

For the sequence LEEDLYELFKKDPGFDRGQFHKQI [PI4K2A], the protein stability index is 3.56 ± 0.14 under setting [1] and 3.56 ± 0.19 under setting [2].

VGSGYRMSLVKRRFATGMYLVSC [FCHO1]: the protein stability index runs as follows: (treatment: DMSO, c terminus: native) 2.89 ± 0.34; (treatment: MLN4924 1 uM, 8 h, c terminus: native) 3.03 ± 0.4.

For EGSVACLWWDPIQRLLFSGASDNS [WDFY1], the protein stability index by setting is: under setting [1], 2.36 ± 0.32; under setting [2], 2.43 ± 0.1.

Consider LVQVESVNLQVATYSKFQPQSPDF [UFD1], for which the protein stability index by setting is: under setting [1], 2.32 ± 0.22; under setting [2], 2.35 ± 0.32.

For CPPPPGPAAAPEGDWARLLEQMGA [ZBED3], the protein stability index was found to be 3.53 ± 0.18 under setting [1] and 3.58 ± 0.84 under setting [2].

The sequence RVKLTKRSGHTQTDYINASFMDGY [PTPN9] had a protein stability index under setting [1] of 2.75 ± 0.14 and a protein stability index under setting [2] of 2.87 ± 0.27.

YPSLYYPEMYILKGGYKEFFPQHP [CDC25B]: the protein stability index runs as follows: under setting [1], 1.78 ± 0.2; under setting [2], 2.12 ± 0.43.

Consider AACLYLVCRTEGTPHMLLDLSDLL [BRF1], for which the protein stability index is, setting by setting: under setting [1], 3.31 ± 0.47; under setting [2], 2.85 ± 0.43.

Sequence ALKKRSGKKDKHSQSPRAAGPREG [PBXIP1] yielded a protein stability index under setting [1] of 4.64 ± 0.14 and a protein stability index under setting [2] of 4.83 ± 0.34.

As to CGKCFSQNTHLTRHQRTHTGEKPY [ZNF263], the protein stability index runs as follows: under setting [1], 2.94 ± 0.16; under setting [2], 3.22 ± 0.14.

Consider LVGLTVIGAFLNLVVLRFLTMNSE [KCNK9], for which the protein stability index by setting is: under setting [1], 3.42 ± 0.46; under setting [2], 3.42 ± 0.25.

As for QSSGKVMYFSSLFPYVVLACFLVR [SLC6A17], the protein stability index by setting is: under setting [1], 2.6 ± 0.76; under setting [2], 2.41 ± 0.24.

Consider NELDSGFRLLNLKNDSLRKRYDGL [TSN], for which the protein stability index reads like this: under setting [1], 3.21 ± 0.28; under setting [2], 3.43 ± 0.36.

VSTQRSQDHFHVFVGDLSPEITTE [TIA1]: the protein stability index under setting [1] was determined as 3.98 ± 0.29 and the protein stability index under setting [2] was 3.92 ± 0.41.

On to PLGNTPMMNQSMMGMNMNIGMSAA [CLINT1], for which the protein stability index under setting [1] was determined as 3.07 ± 0.21 and the protein stability index under setting [2] stood at 2.9 ± 0.24.

Turning to LLSGAFKKRRLPPVHIHPAFARQA [FOXJ1], the protein stability index under setting [1] is 2.21 ± 0.1 and the protein stability index under setting [2] is 2.54 ± 0.36.

Consider DYWLRRFEAEPLPENTNRQLLLQF [PI4K2A], for which the protein stability index runs as follows: under setting [1], 2.41 ± 0.21; under setting [2], 2.35 ± 0.27.

Consider KCFHEIITIGYRVYHSYDLPWFRT [CDS1], for which the protein stability index runs as follows: under setting [1], 2.88 ± 0.49; under setting [2], 2.87 ± 0.56.

With SNPLAREIFRRHFRQLCYQETPGP [ZSCAN9], the protein stability index by setting is: under setting [1], 2.28 ± 0.039; under setting [2], 2.52 ± 0.097.

As to GYIDPEELAEIFRASGEHVTDEEI [TNNC2], the protein stability index runs as follows: under setting [1], 5.01 ± 0.87; under setting [2], 4.99 ± 0.17.

With AAANCHFHCIETLVTTGANVNETD [ANKRD44], the protein stability index was determined as 3.99 ± 0.22 under setting [1] and 4.08 ± 0.15 under setting [2].

ASLKSEAESLKGKLEEERAKLHDV [GNB5]: the protein stability index was 5.32 ± 0.11 under setting [1] and 5.26 ± 0.32 under setting [2].

Take ANLPVPTIAAIDGLALGGGLELAL [AUH]: the protein stability index is, setting by setting: under setting [1], 2.35 ± 0.37; under setting [2], 2.02 ± 0.55.

In the case of KVMKQPRCGVPDVAQFVLTEGNPR [MMP1], the protein stability index is, setting by setting: under setting [1], 3.32 ± 0.1; under setting [2], 3.38 ± 0.17.

As to ISENLDYEETGFYEIEIQAEDGGA [PCDHGA10], the protein stability index under setting [1] came out at 4.74 ± 0.18 and the protein stability index under setting [2] was 4.7 ± 0.2.

WAQLEAPARLLLQALQAGPEGARR [FANCE]: the protein stability index reads like this: under setting [1], 2.78 ± 0.37; under setting [2], 3.08 ± 0.29.

Turning to LEKESDTPLQQVSIEEILEEQRVE [LSM1], the protein stability index runs as follows: under setting [1], 5.26 ± 0.26; under setting [2], 5.53 ± 0.098.

As for LDKLLQGGIETGSITEMFGEFRTG [RAD51], the protein stability index under setting [1] amounted to 3.07 ± 0.26 and the protein stability index under setting [2] worked out at 3.06 ± 0.28.

Take FLPFLLCAVLLSAVQAQAGWLQHD [FADS1]: the protein stability index runs as follows: under setting [1], 2.73 ± 0.23; under setting [2], 3.02 ± 0.66.

For RKLNSRLFVIRGQPADVFPRLFKE [CRY1], the protein stability index reads like this: under setting [1], 2.27 ± 0.38; under setting [2], 2.09 ± 0.39.

NPEVGIFVSIAQSEQESLLQQAQA [SMG5]: the protein stability index by setting is: under setting [1], 4.09 ± 0.3; under setting [2], 4.23 ± 0.24.

Consider YKVNTPMLQSFINYCLLFLIYTVM [SLC35F2], for which the protein stability index under setting [1] worked out at 2.35 ± 0.8 and the protein stability index under setting [2] was found to be 2.44 ± 0.38.

Turning to GARLGGFNFVSTPKCSCGQLAAVH [RNF180], the protein stability index is, setting by setting: under setting [1], 2.36 ± 0.55; under setting [2], 2.54 ± 0.21.

As to ARIYIRRTLRNFINDEMQAKGIPQ [PCMTD1], the protein stability index runs as follows: under setting [1], 2.01 ± 0.33; under setting [2], 2.15 ± 0.18.

Regarding EEEEEEEAAGVVVEEELFHQQGTP [LMNB1], the protein stability index was determined as 5.38 ± 0.31 under setting [1] and 5.47 ± 0.41 under setting [2].

For VEWAKYIPAFCELPLDDQVALLRA [HNF4A], the protein stability index worked out at 2.42 ± 0.64 under setting [1] and 2.44 ± 0.42 under setting [2].

In the case of TLQHWPHIIRIGDLKPTGEIPKQV [DENND6A], the protein stability index was found to be 2.3 ± 0.29 under setting [1] and 2.74 ± 0.24 under setting [2].

As for TYSKFQPQSPDFLDITNPKAVLEN [UFD1], the protein stability index is 3.92 ± 0.18 under setting [1] and 4.24 ± 0.076 under setting [2].

As for YLPTRGGTTMASGGRFRCPSCRHE [TRIM55], the protein stability index came to 2.69 ± 0.57 under setting [1] and 3.42 ± 0.43 under setting [2].

As for DPQILQMLKEEHQIILENQKNFGL [RAD54B], the protein stability index amounted to 3.25 ± 0.3 under setting [1] and 3.812 ± 0.008 under setting [2].

On to SSTQLNELLLFAVGFIMAGTPMAL [OR3A1], for which the protein stability index by setting is: under setting [1], 3.05 ± 0.3; under setting [2], 3.04 ± 0.61.

Regarding PWERAMGVDPQQKMELGIDLLAYG [MYOZ1], the protein stability index worked out at 2.97 ± 0.28 under setting [1] and 2.94 ± 0.13 under setting [2].

On to GFENMDFFTLDLEHIADALRAIDF [TRIM63], for which the protein stability index came out at 2.11 ± 0.17 under setting [1] and 2.25 ± 0.35 under setting [2].

With EIPKQVKVKKLKNLKTLDSKPGVY [DENND6A], the protein stability index by setting is: under setting [1], 3.4 ± 0.34; under setting [2], 3.31 ± 0.52.

As for AIAWCLRNEGVSSVLLGASNADQL [KCNAB2], the protein stability index runs as follows: under setting [1], 2.23 ± 0.27; under setting [2], 2.1 ± 0.13.

LLDHNANIDIQNGFLLRYAVIKSN [ASB7]: the protein stability index runs as follows: under setting [1], 2.53 ± 0.17; under setting [2], 2.14 ± 0.2.

With VVGLHAASKDPREVREARDHKEPK [EHMT1], the protein stability index is, setting by setting: under setting [1], 5.06 ± 0.13; under setting [2], 5.11 ± 0.052.

SLGYVRSQFLKLKTSVEKANAQIQ [CD207]: the protein stability index is, setting by setting: under setting [1], 2.63 ± 0.53; under setting [2], 2.81 ± 0.27.

As to NSRVDDTFWASWRAFAQIGPARSG [MIR22HG], the protein stability index is, setting by setting: under setting [1], 2.6 ± 0.32; under setting [2], 2.79 ± 0.35.

As to GGLIYWIGLTKAGMEGDWSWVDDT [CD207], the protein stability index amounted to 2.12 ± 0.7 under setting [1] and 3.07 ± 1.4 under setting [2].

In turn, GRSREELDELTGEVAGGGTPLLIA [FEM1A] came in with a protein stability index under setting [1] of 4.6 ± 0.26 and a protein stability index under setting [2] of 4.77 ± 0.26.

SLRLCDMRAAALCDKHSKLFEEPE [PPP2R2C]: the protein stability index came out at 4.19 ± 0.26 under setting [1] and 4.08 ± 0.26 under setting [2].
